Assay results published in IntAct's records for PubMed 17955262.

B1: Frizzled-4 (Homo sapiens), Q9ULV1 (parent)
chain: MAWRGAGPSVPGAPGGVGLSLGLLLQLLLLLGPARGFGDEEERRCDPIRISMCQNLGYNVTKMPNLVGHELQTDAELQLTTFTPLIQYGCSSQLQFFLCSVYVPMCTEKINIPIGPCGGMCLSVKRRCEPVLKEFGFAWPESLNCSKFPPQNDHNHMCMEGPGDEEVPLPHKTPIQPGEECHSVGTNSDQYIWVKRSLNCVLKCGYDAGLYSRSAKEFTDIWMAVWASLCFISTAFTVLTFLIDSSRFSYPERPIIFLSMCYNIYSIAYIVRLTVGRERISCDFEEAAEPVLIQEGLKNTGCAIIFLLMYFFGMASSIWWVILTLTWFLAAGLKWGHEAIEMHSSYFHIAAWAIPAVKTIVILIMRLVDADELTGLCYVGNQNLDALTGFVVAPLFTYLVIGTLFIAAGLVALFKIRSNLQKDGTKTDKLERLMVKIGVFSVLYTVPATCVIACYFYEISNWALFRYSADDSNMAVEMLKIFMSLLVGITSGMWIWSAKTLHTWQKCSNRLVNSGKVKREKRGNGWVKPGKGSETVV
B2: Norrin (Homo sapiens), Q00604 (parent)
chain: MRKHVLAASFSMLSLLVIMGDTDSKTDSSFIMDSDPRRCMRHHYVDSISHPLYKCSSKMVLLARCEGHCSQASRSEPLVSFSTVLKQPFRSSCHCCRPQTSKLKALRLRCSGGMRLTATYRYILSCHCEECNS

Variants of: B1
Conditions: with ndp_human NDP, Q00604

Variant	effect of a mutation on the interaction
M105V	decreasing interaction

Variants of: B2
Conditions: with fzd4_human FZD4, Q9ULV1

Variant	effect of a mutation on the interaction
K54D	decreasing interaction
R115L	decreasing interaction
